Assay results from the RNAGym collection of RNA variant scans (doi:10.7554/elife.90254).

B1: LINE1-mini (parent)
chain: GGCAGAGCUCAACACAGCGUGGCAAAGUGGCUGUGGCUAGACUGCC

Variants of: B1
Assay: self-cleavage, relative activity (ratio to wild type); higher = more cleavage; in vitro, sequencing; the parent is a self-cleaving ribozyme

Variant	self-cleavage
GGCAGAGCGCAACAGAGCGUGGCAAAGUGGCUGUGGCUAGACUGCC [U9G C15G]	0.43
GGCAGAGCUCAACACAGCGUGGCAAGGUGGCUCUGGCUAGACUGCC [A26G G33C]	0.08
GGCAGAGCUCAACACCGCGUGGCAAAGUGGCUGUUGCUAGACUGCC [A16C G35U]	0.03
GGCAGGGCUCAACACAGCGUGGCAAAGUGCCUGUGGCUAGACUGCC [A6G G30C]	0.13
GGCAUAGCUCAACACAGCGUGGCAAAGUGGCUGUGGCCAGACUGCC [G5U U38C]	0.05
GGGAGAGCUCAACACAGCCUGGCAAAGUGGCUGUGGCUAGACUGCC [C3G G19C]	0.16
GGCAGAGCCCAACACAGCGUGGCGAAGUGGCUGUGGCUAGACUGCC [U9C A24G]	0.07
GGCAGAGCUCAACACGGCGUGGCAAAGUGGCUGUGGCUGGACUGCC [A16G A39G]	0.07
GGCAGAGCUCAACACUGCGUGGCAAAGUGGCUGUGGCUAGAAUGCC [A16U C42A]	0.05
GGCAGAGCUCAACACAGCGUGGCAAAGUGGCUGUCGCUACACUGCC [G35C G40C]	0.08
GGCAGAGCUCAACCCAGCGUGGCAAAGUGUCUGUGGCUAGACUGCC [A14C G30U]	0.07
GACAGAGCUCAUCACAGCGUGGCAAAGUGGCUGUGGCUAGACUGCC [G2A A12U]	0.41
GGCAGAGCUCAACACAGCAUGGCAAAGUGGCUGAGGCUAGACUGCC [G19A U34A]	0.1
GGCAGAGCUCAACACAGCGUGGCAAAGUGACUGUGGCCAGACUGCC [G30A U38C]	0.64
GGCAGAGCUGAACACAGCGUCGCAAAGUGGCUGUGGCUAGACUGCC [C10G G21C]	0.07
GGCAGAGCUCAACGCAGCGUGGCAAAGUGGCGGUGGCUAGACUGCC [A14G U32G]	0.04
GGCAGAGCUCAACACAGCGAGGCAAAGUGGCUGGGGCUAGACUGCC [U20A U34G]	0.25
GGCAGAGCUCCACACAGCGUCGCAAAGUGGCUGUGGCUAGACUGCC [A11C G21C]	0.08
GGCACAGCUCAUCACAGCGUGGCAAAGUGGCUGUGGCUAGACUGCC [G5C A12U]	0.05

Variant	self-cleavage
GGCAGAGCUCAACACAGCGCGGCAAAGUGGCUGUGGCUAGACUACC [U20C G44A]	0.12
GGCAGAGCUCAACACGGCGUGGCAAAGUGGCUGUGGCUAGCCUGCC [A16G A41C]	0.11
GGCAGAGCUCAAUACAGCGAGGCAAAGUGGCUGUGGCUAGACUGCC [C13U U20A]	0.17
GGCAGAGCUCAACACAGCGUGGCAAAGUGUCUGUGGCUAGACCGCC [G30U U43C]	0.1
GGCAGAGCUCAACACAGCGUGGCAAAGUGGCCGUGGCCAGACUGCC [U32C U38C]	0.06
GGCAGAGAUCAAUACAGCGUGGCAAAGUGGCUGUGGCUAGACUGCC [C8A C13U]	0.9
GGCAGAGCUAAACACAGCGUGGCAACGUGGCUGUGGCUAGACUGCC [C10A A26C]	0.04
GGCACAGCUCAACACAGCUUGGCAAAGUGGCUGUGGCUAGACUGCC [G5C G19U]	0.14
GGUAGAACUCAACACAGCGUGGCAAAGUGGCUGUGGCUAGACUGCC [C3U G7A]	0.26
GGCCGAGCUCAACACAGCGUGGCAAAGUGGGUGUGGCUAGACUGCC [A4C C31G]	0.06
GGCAGAGCUCAACACAGCGGGGCAAAGUGGCUCUGGCUAGACUGCC [U20G G33C]	0.06
GGCAGAGCUCAACUCAGCGUUGCAAAGUGGCUGUGGCUAGACUGCC [A14U G21U]	0.74
GGCAGAGCUCAAAACAGCGUGGCAAAGUGGCUGUGGCUAGACUCCC [C13A G44C]	0.07
GGCACAGCUCAACACAGCGUGGCAGAGUGGCUGUGGCUAGACUGCC [G5C A25G]	0.06
GGCAGGGCUCAACACAGCGUUGCAAAGUGGCUGUGGCUAGACUGCC [A6G G21U]	0.13
GGCAGAGCUCAACAGAGCGUGGCAAAGUGGCUGAGGCUAGACUGCC [C15G U34A]	0.52
GGCAGAGCUCAACACAGCGUGGCAAAGUGGGUGUGGCUAGAAUGCC [C31G C42A]	0.05
GGCAGAGCUCAACACAGCGUGGCGAAGUGGCUGUGGCUAGACAGCC [A24G U43A]	0.11
GGCAGAGCUCAACACAGCCUGGCAAAGUGGCUGUGGGUAGACUGCC [G19C C37G]	0.02

Variant	self-cleavage
GGCAGAGCUCAACAGAGCGUGGCAAAGUGGCUGUGACUAGACUGCC [C15G G36A]	0.06
GGCAGAGCUCAACACAGUGUGGCAAAGUAGCUGUGGCUAGACUGCC [C18U G29A]	1.77
GGCAGAGCUCAACACAGCGCGGCAAAGUGGCUGUGGCUCGACUGCC [U20C A39C]	0.2
GGCAGAGCUCAACAGAGCGUGGCAAAGUGGCUGUGGUUAGACUGCC [C15G C37U]	0.04
GGCAGAGCUCAACCCAGCGUGGCAAAGUGGCUGCGGCUAGACUGCC [A14C U34C]	0.07
GGCAAAGCGCAACACAGCGUGGCAAAGUGGCUGUGGCUAGACUGCC [G5A U9G]	0.27
GGCAGAGCUCAACACAGCGUGGCAAAGUGGCUGUUGCUAGACUGCC [G35U]	0.16
GGCAGAGCUUAACACAGCGUGGCCAAGUGGCUGUGGCUAGACUGCC [C10U A24C]	0.11
GGCAGAGCUCAACACACCGUGGCAAAGUGGCUGUGGCUAGACAGCC [G17C U43A]	0.13
GGCAGGGCUCAACACAGCGUGGCAAAGUGGCUGUGGCUAGGCUGCC [A6G A41G]	0.39
GGCAGAGCUCAACACAGCGUGGCAAAGUGGCUGUCGCUAGACUGCA [G35C C46A]	0.1
GGCCGAGCUCAACACAGGGUGGCAAAGUGGCUGUGGCUAGACUGCC [A4C C18G]	0.11
GGCAGAGCUCAACCCAGCGUGGCAGAGUGGCUGUGGCUAGACUGCC [A14C A25G]	0.07
GGCAGAGCUCAACACUGCGUGGCAAAGUGGCUGUGGCUAGUCUGCC [A16U A41U]	0.07
GGCAUAGCUCAACACAGCGUGGCAAAGUCGCUGUGGCUAGACUGCC [G5U G29C]	0.04
GGCGGAGCCCAACACAGCGUGGCAAAGUGGCUGUGGCUAGACUGCC [A4G U9C]	0.02
GGCAGAGCUCAACACACCUUGGCAAAGUGGCUGUGGCUAGACUGCC [G17C G19U]	0.24
GGCAGAGCUCAAAACAGCGCGGCAAAGUGGCUGUGGCUAGACUGCC [C13A U20C]	0.04
